The source of these data is FireProtDB (doi:10.1006/jmbi.2000.3958).

For this data set the following is noted: Schizosaccharomyces pombe (strain 972 / ATCC 24843); pH 7.5; 25 °C; Urea; Fluorescence; Tris 50 mM; whole UniProt chain shown.

B1: Cyclin-dependent kinases regulatory subunit wild type, P08463 (protein)
chain: MSKSGVPRLLTASERERLEPFIDQIHYSPRYADDEYEYRHVMLPKAMLKAIPTDYFNPETGTLRILQEEEWRGLGITQSLGWEMYEVHVPEPHILLFKREKDYQMKFSQQRGG
As for B1, the denaturant m value is 1.63 kcal/mol/M and the “denaturant midpoint (higher = more stable)” value was 4.42 M.
